T1: cynomolgus CX3CR1 (cynomolgus monkey (Macaca fascicularis), UniProt P49238 1-355 (human entry))
T1 construct: Overexpressed on CHO K1 cells; also called cyno CX3CR1; cyCX3CR1
T1 chain: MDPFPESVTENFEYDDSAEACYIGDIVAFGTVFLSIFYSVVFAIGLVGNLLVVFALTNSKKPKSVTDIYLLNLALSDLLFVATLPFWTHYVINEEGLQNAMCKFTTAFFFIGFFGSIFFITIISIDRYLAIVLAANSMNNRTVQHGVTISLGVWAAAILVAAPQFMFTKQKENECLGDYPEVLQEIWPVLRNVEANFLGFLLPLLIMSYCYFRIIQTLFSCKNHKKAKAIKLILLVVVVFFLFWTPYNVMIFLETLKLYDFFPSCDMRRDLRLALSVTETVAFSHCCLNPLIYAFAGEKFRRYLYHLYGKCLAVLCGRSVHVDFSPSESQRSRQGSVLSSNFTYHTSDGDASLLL

T2: human CX3CR1 (human, UniProt P49238 1-355)
T2 sequence: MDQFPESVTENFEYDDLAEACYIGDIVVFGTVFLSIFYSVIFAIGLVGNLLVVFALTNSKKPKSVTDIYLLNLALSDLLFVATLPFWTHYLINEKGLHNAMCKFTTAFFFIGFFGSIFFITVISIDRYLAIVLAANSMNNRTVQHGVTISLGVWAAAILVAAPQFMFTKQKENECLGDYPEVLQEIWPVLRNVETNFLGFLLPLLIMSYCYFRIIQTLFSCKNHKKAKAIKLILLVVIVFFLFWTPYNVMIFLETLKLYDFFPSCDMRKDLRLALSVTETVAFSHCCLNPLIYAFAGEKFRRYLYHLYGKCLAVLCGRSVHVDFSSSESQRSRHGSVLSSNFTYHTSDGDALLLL

T3: FCGR2B (human, UniProt P31994)
T3 construct: overexpressed on live cells from an expression plasmid; Tested in the validation titration of the membrane protein array
T3 sequence (membrane protein, looked up): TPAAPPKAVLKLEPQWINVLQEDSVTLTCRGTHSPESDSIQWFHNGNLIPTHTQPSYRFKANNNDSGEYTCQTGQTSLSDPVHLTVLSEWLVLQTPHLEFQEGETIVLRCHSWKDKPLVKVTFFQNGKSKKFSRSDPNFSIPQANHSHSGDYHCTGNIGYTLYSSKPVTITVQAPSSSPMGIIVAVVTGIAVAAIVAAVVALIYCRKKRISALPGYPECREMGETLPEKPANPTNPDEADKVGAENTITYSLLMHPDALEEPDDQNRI

B1: A041600035 (VHH)
chain: DVQLVESGGGSVQPGGSLRLSCAASGSIFSSTAMAWYRQAPGKQRDLVAVISTVGITKYADSVKGRFTISRDNAKNTVYLQMNSLRPEDTALYYCTSDARRGWDTRYWGQGTLVTVSSGGGGSGGGSEVQLVESGGGSVQPGGSLRLSCAASGSIFSSTAMAWYRQAPGKQRDLVAVISTVGITKYADSVKGRFTISRDNAKNTVYLQMNSLRPEDTALYYCTSDARRGWDTRYWGQGTLVTVSSGGGGSGGGSEVQLVESGGGVVQPGGSLRLSCAASGFTFRSFGMSWVRQAPGKGPEWVSSISGSGSDTLYADSVKGRFTISRDNSKNTLYLQMNSLRPEDTALYYCTIGGSLSRSSQGTLVTVSSA
notes: Trivalent ISVD construct (two anti-CX3CR1 ISVDs, one anti-albumin ISVD), C-terminal alanine included in the entry; also called 54A12_SO (E1D)-9GS-54A12_SO-9GS-ALB23002-A
B2: A041600085 (VHH)
chain: DVQLVESGGGLVQPGGSLRLSCAASGSIFSSTAMAWYRQAPGKRRDLVAAISTVGVTKYADSVKGRFTISRDNSKNTVYLQMNSLRPEDTAVYYCTSDPRRGWDTRYWGQGTLVTVSSGGGGSGGGSEVQLVESGGGVVQPGGSLRLSCAASGFTFRSFGMSWVRQAPGKGPEWVSSISGSGSDTLYADSVKGRFTISRDNSKNTLYLQMNSLRPEDTALYYCTIGGSLSRSSQGTLVTVSSGGGGSGGGSEVQLVESGGGLVQPGGSLRLSCAASGSIFSSTAMAWYRQAPGKRRDLVAAISTVGVTKYADSVKGRFTISRDNSKNTVYLQMNSLRPEDTAVYYCTSDPRRGWDTRYWGQGTLVTVSSA
notes: also called 307-9GS-ALB23002-9GS-307 (D1E)-A

What was measured:
cynomolgus CX3CR1 [1] = target: T1, cynomolgus CX3CR1; test: MSD-SET in-solution affinity on cell expressed cyno CX3CR1, 30 uM HSA, geometric mean of N = 3
Experimental: (§1) The affinity was determined on 3 independent assay occasions.

human CX3CR1 [2] = target: T2, human CX3CR1; test: cell-based or functional assay
FCGR2B = target: T3, FCGR2B; test: membrane protein array validation: flow cytometry on unfixed cells expressing the protein, serial dilutions in buffer with 10% human serum albumin, fluorescently labeled secondary antibody that binds ISVDs
human CX3CR1 [3] = target: T2, human CX3CR1; test: MSD-SET in-solution affinity on cell expressed human CX3CR1, 30 uM HSA, geometric mean of N = 3
Experimental: as §1

cynomolgus CX3CR1 [4] = target: T1, cynomolgus CX3CR1; test: flow cytometry on CHO K1 cells; tied to A041600085 by Table B-4 (5.6E-10 against 1.7E-10)
Experimental: CHO cells overexpressing human or cynomolgus CX3CR1 were generated using techniques known in the art. Cells were harvested and resuspended in assay buffer (PBS, 2% FBS, 0.05% NaN3) and seeded separately in 384-well Bio-One V-bottom plates (Greiner, Cat. No. 781280), with a total of 2E04 cells seeded per well. After washing, serial dilutions of multivalent ISVD construct (starting from 250 nM, 3-fold dilution, 11 points, diluted in assay buffer), were added and incubated for 4 hours at 4° C. Binding was performed in the presence of 30 uM HSA (Sigma-Aldrich, Cat. No. A8763). Plates were then washed 3 times and cells were incubated with an anti-VHH mouse antibody (3300-fold diluted in assay buffer) for 30 minutes at 4′° C. […] Plates were finally washed 3 times and cells were resuspended in PI (Miltenyi Biotec, Cat. No. 130-093-233, 1000-fold diluted in assay buffer). Cell suspensions were analyzed with iQue Screener PLUS (Intellicyt). EC50s were estimated by dose response modelling. Curves were fit using 4 parameter logistic regression in GraphPad (GraphPad Software Inc.). A purified anti-human CX3CR1 antibody [K0124E1] (BioLegend, Cat. No. 355701/355702) was used as positive control to detect CX3CR1 expression on the cell surface.

Binder | Kd (cynomolgus CX3CR1 [1]) [pM] | arbitrary migration index (GM), classical monocytes of healthy donors, 625 pM (human CX3CR1 [2]) | arbitrary migration index (GM), classical monocytes of healthy donors, 2500 pM (human CX3CR1 [2]) | arbitrary migration index (GM), classical monocytes of healthy donors, 10000 pM (human CX3CR1 [2]) | arbitrary migration index (GM), classical monocytes of healthy donors, 40000 pM (human CX3CR1 [2]) | arbitrary migration index (GM), intermediate monocytes of healthy donors, 625 pM (human CX3CR1 [2]) | arbitrary migration index (GM), intermediate monocytes of healthy donors, 2500 pM (human CX3CR1 [2]) | arbitrary migration index (GM), intermediate monocytes of healthy donors, 10000 pM (human CX3CR1 [2]) | arbitrary migration index (GM), intermediate monocytes of healthy donors, 40000 pM (human CX3CR1 [2]) | arbitrary migration index (GM), non-classical monocytes of healthy donors, 625 pM (human CX3CR1 [2]) | arbitrary migration index (GM), non-classical monocytes of healthy donors, 2500 pM (human CX3CR1 [2]) | arbitrary migration index (GM), non-classical monocytes of healthy donors, 10000 pM (human CX3CR1 [2]) | arbitrary migration index (GM), non-classical monocytes of healthy donors, 40000 pM (human CX3CR1 [2]) | binding result (FCGR2B) | Kd (human CX3CR1 [3]) [pM] | fold difference in EC50 (cyno CX3CR1 against human CX3CR1) (cynomolgus CX3CR1 [4]) [fold]
B1 | 110 | 1.15 fold change to media control | 1.09 fold change to media control | 1.05 fold change to media control | 1.27 fold change to media control | 1.26 fold change to media control | 1.14 fold change to media control | 1.04 fold change to media control | 1.13 fold change to media control | 1.05 fold change to media control | 1.08 fold change to media control | 0.82 fold change to media control | 0.91 fold change to media control | no binding (tested: 20 ug/ml) | 130 | 
B2 |  |  |  |  |  |  |  |  |  |  |  |  |  |  |  | 3.3

From patent US20240117038A1 (Ablynx, published 2024)
